Results on one molecule are retold here after patent publication US20190367633A1 (BEIJING HANMI PHARMACEUTICAL, published 2019).

Assay [1] deals with T1, Recombinant human PD-1 (Beijing Yiqiao Shenzhou, Cat. No. 10377-H08H) (human, UniProt Q15116 25-167).
T1 construct: Bought protein coated on the ELISA plate
The assay can be described thus: ELISA, antigen coated at 1 ug/mL. As to the method: The coating was performed at 4° C. overnight. […] Color development was terminated by adding 100 μL/well of 1 M H₂SO₄. The absorbance at 450 nm was read on a microplate reader.
On the technique in general: An ELISA detects its analyte on a solid surface through an enzyme-linked reagent.

The target of assay [2] is T2, PD-1 on PD-1-overexpressing CHO/PD-1 cells (GenScript, Cat. No. M00529) (UniProt Q15116 25-288, limits assumed).
T2 construct: whole, on cells
T2 sequence (Q15116 25-288 limits assumed, one chain of several): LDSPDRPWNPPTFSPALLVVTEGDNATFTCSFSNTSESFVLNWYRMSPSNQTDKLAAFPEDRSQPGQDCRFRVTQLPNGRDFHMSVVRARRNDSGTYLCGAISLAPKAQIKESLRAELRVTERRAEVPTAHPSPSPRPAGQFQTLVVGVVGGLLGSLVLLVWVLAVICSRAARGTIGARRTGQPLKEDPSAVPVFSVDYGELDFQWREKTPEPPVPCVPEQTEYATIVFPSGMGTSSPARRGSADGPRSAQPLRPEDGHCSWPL
Nature of the assay: flow cytometry, association of PKH26-stained CHO/PD-1 and CFSE-stained SK-BR-3 cells.

T1 sequence (Q15116 25-167 limits assumed): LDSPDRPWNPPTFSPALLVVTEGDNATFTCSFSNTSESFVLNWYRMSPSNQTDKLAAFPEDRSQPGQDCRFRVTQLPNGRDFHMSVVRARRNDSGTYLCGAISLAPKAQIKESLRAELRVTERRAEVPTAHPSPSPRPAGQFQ

B1: anti-PD-1pem/anti-HER2 heterodimeric bispecific antibody (bispecific antibody, human IgG1, kappa)
heavy 1: not shown
light 1: EIVLTQSPATLSLSPGERATLSCRASKGVSTSGYSYLHWYQQKPGQAPRLLIYLASYLESGVPARFSGSGSGTDFTLTISSLEPEDFAVYYCQHSRDLPLTFGGGTKVEIKRTVAAPSVFIFPPSDEQLKSGTASVVCLLNNFYPREAKVQWKVDNALQSGNSQESVTEQDSKDSTYSLSSTLTLSKADYEKHKVYACEVTHQGLSSPVTKSFNRGEC
heavy 2: not shown
light 2: not shown
notes: also called PD-1/HER2 heterodimeric antibody; PD-1/HER2 heterodimer
As for B1, the binding result in assay [1] and in assay [2] was “binds” throughout.
